From patent US20240343811A1 (SHANDONG SIMCERE BIOPHARMACUTICAL, published 2024)
Substitutions are numbered along the chain they refer to.

T1: Human CD16b (NA1)-his (human)
T1 construct: entry holds ECD, linker, His tag and AVI tag
T1 chain: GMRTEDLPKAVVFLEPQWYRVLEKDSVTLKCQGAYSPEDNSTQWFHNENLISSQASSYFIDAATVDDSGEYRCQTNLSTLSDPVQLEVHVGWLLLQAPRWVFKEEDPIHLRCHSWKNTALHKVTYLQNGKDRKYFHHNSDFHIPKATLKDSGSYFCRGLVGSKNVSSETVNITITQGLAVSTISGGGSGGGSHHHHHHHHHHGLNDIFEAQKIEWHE

B1: VHH11 VHH-Fc antibody (Fc fusion)
chain: EVQVVESGGGLAQAGGSLRLSCAVSGITFSSYAMGWYRQDPGKQRELVAAINRFGLTNYADSVKGRFTISRDNAKNTVYLQMTSLKPEDTAVYYCNTGGVYSHPNYYTGTYWGQGTQVTVSSEPKSSDKTHTCPPCPAPEFEGGPSVFLFPPKPKDTLMISRTPEVTCVVVAVSHEDPEVKFNWYVDGVEVHNAKTKPREEQYNSTYRVVSVLTVLHQDWLNGKEYKCKVSNKALPAPIEKTISKAKGQPREPQVYTLPPSREEMTKNQVSLTCLVKGFYPSDIAVEWESNGQPENNYKTTPPVLDSDGSFFLYSKLTVDKSRWQQGNVFSCSVMHEALHNHYTQKSLSLSPGK
B2: VHH12 VHH-Fc antibody (Fc fusion)
chain: B1 chain with E1Q, V4L, A12V, V24A, D40A, S62F, D72V, N105D
B3: VHH06 VHH-Fc antibody (Fc fusion)
chain: EVQLVESGGGLVQAGGSLRLSCVASGSTWTTYAVRWYRQAPGKQREWVAFISVDGSTNYPDSVKGRFIVSRDNAKNTVYLQMNSLKPEDTADYICRVGGQYWGQGTQVTVSSEPKSSDKTHTCPPCPAPEFEGGPSVFLFPPKPKDTLMISRTPEVTCVVVAVSHEDPEVKFNWYVDGVEVHNAKTKPREEQYNSTYRVVSVLTVLHQDWLNGKEYKCKVSNKALPAPIEKTISKAKGQPREPQVYTLPPSREEMTKNQVSLTCLVKGFYPSDIAVEWESNGQPENNYKTTPPVLDSDGSFFLYSKLTVDKSRWQQGNVFSCSVMHEALHNHYTQKSLSLSPGK

Biological target: T1, Human CD16b (NA1)-his
Assay: SPR (Biacore), antibody captured on Protein A
Summary of the method: (§1)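 Protein A–captured antibody was probed with CD16-his ECD in HBS-EP+ at 25 °C: five 2-fold dilutions from 200 nM, 240 s at 30 μL/min, dissociation up to 600 s. Glycine pH 1.5 regenerated the chip. Apparent KD came from a double-referenced 1:1 Langmuir fit.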

Kd	koff	kon	Binder
6010 nM	0.259 s⁻¹	43100 M⁻¹ s⁻¹	B1
1500 nM	0.154 s⁻¹	103000 M⁻¹ s⁻¹	B2
8.63 nM	0.00113 s⁻¹	130000 M⁻¹ s⁻¹	B3

Biological target: T2, Human CD16a (158V)-his (human)
T2 construct: entry holds ECD, AVI tag, linker and His tag
Assay: SPR (Biacore), antibody captured on Protein A
Summary of the method: as §1

Kd	koff	kon	Binder
32 nM	0.0491 s⁻¹	1.53e+06 M⁻¹ s⁻¹	B1
10.8 nM	0.0201 s⁻¹	1.86e+06 M⁻¹ s⁻¹	B2
1.96 nM	0.000213 s⁻¹	109000 M⁻¹ s⁻¹	B3

Biological target: T3, CD16 on primary human NK cells (human, UniProt P08637 17-254)
T3 construct: whole, on cells; also called resting NK cells
Assay: FACS on human NK cells, biotinylated antibody

EC50	Maximum mean fluorescence intensity	Binder
0.95 nM	60700	B1
0.4 nM	46500	B2
1.42 nM	69600	B3

Biological target: T3, CD16 on primary human NK cells
Assay: FACS on human NK cells
Summary of the method: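 EC50 came from curve fitting of flow-cytometric MFI. Antibody titrations were bound for 1 hour on ice to fresh human NK cells blocked in PBS with 2% (w/w) BSA (2×10⁶ cells/ml), followed by five PBS washes before acquisition.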

EC50	Maximum mean fluorescence intensity	Binder
0.33 nM	2660	B1
0.21 nM	2680	B2
0.54 nM	2600	B3

Biological target: T4, human CD16a (158V), full length, on cells (human, UniProt P08637 17-254)
T4 construct: also used as target for the bought Jurkat-NFAT reporter line stably expressing human CD16a (158V); also called FlpinCHO-human CD16a (158V); FlpinCHO-CD16a (158V)
Assay: FACS, biotinylated antibody
Target sequence in this assay (P08637 17-254 F176V limits assumed): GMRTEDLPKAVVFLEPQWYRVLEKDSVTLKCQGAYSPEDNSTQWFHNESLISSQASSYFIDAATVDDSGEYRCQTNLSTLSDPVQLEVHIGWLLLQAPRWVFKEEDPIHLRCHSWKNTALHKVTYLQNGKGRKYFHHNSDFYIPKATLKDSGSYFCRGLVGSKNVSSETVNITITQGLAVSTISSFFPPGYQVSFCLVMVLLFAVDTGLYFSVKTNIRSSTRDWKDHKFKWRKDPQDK

EC50	Maximum mean fluorescence intensity	Binder
0.36 nM	10700	B1
0.16 nM	7950	B2
0.79 nM	13300	B3

Biological target: T5, human CD16a (158F), full length, on FlpinCHO cells (human, UniProt P08637 17-254)
Assay: FACS, biotinylated antibody
Target sequence in this assay (P08637 17-254 limits assumed): as the sequence (P08637 17-254 F176V limits assumed) above, with V160F counted along it

EC50	Maximum mean fluorescence intensity	Binder
0.2 nM	7240	B1
0.12 nM	5410	B2
0.39 nM	9740	B3

Biological target: T4, human CD16a (158V), full length, on …
Assay: FACS, biotinylated antibody, +10 mg/mL human immunoglobulin
Target sequence in this assay (P08637 17-254 F176V limits assumed): as the sequence (P08637 17-254 F176V limits assumed) above

EC50	Maximum mean fluorescence intensity	Binder
1.12 nM	10800	B1
0.97 nM	8140	B2
1.77 nM	14500	B3

Biological target: T5, human CD16a (158F), full length, on …
Assay: as above
Target sequence in this assay (P08637 17-254 limits assumed): as the sequence (P08637 17-254 F176V limits assumed) above, with V160F counted along it

EC50	Maximum mean fluorescence intensity	Binder
0.75 nM	6720	B1
0.81 nM	5310	B2
1.66 nM	10700	B3

Biological target: T3, CD16 on primary human NK cells
Assay: FACS on human NK cells, biotinylated antibody, +10 mg/mL human immunoglobulin

EC50	Maximum mean fluorescence intensity	Binder
2.31 nM	62300	B1
1.82 nM	48900	B2
3.9 nM	80000	B3

Biological target: T4, human CD16a (158V), full length, on …
Assay: FACS on FlpinCHO cells
Summary of the method: (§2)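 EC50 comes from fitted concentration–MFI curves. Antibody dilutions were bound to the cells for 1 hour on ice in PBS blocking buffer with 2% BSA, followed by washing and flow cytometric readout.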

EC50	Maximum mean fluorescence intensity	Binder
0.33 nM	6240	B1
0.21 nM	6680	B2
0.66 nM	8110	B3

Biological target: T5, human CD16a (158F), full length, on …
Assay: FACS on FlpinCHO cells
Summary of the method: as §2

EC50	Maximum mean fluorescence intensity	Binder
0.28 nM	5670	B1
0.16 nM	6090	B2
0.58 nM	7070	B3
